Data from the supplement of paper PMC7125110.
± gives the standard error. This sample holds only a part of the variants without activity.

B1: glmS ribozyme (parent)
chain: AUAAAAGCGCCAGAACUACAGAAAUGUAGUUGACGAGGAGGAGGUUUAUCGAAUUUUCGGCGGAUGCCUCCAAA

What was measured:
Details in all cases: with glucosamine-6-phosphate
glucosamine-6-phosphate [1] = variants of: B1; experiment: self-cleavage kobs at 40 uM GlcN6P; higher = faster cleavage; RNA array
Procedure, shortened: (§1)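 Glucosamine-6-phosphate in HEPES/KCl/Mg(OAc)2 buffer, at 40 μM to 10 mM, was flowed over barcoded ribozyme variants transcribed in situ by E. coli RNA polymerase on sequenced MiSeq chips. Tracking was through a hybridised Cy3 probe at 37 °C. kobs, kcat and KM came from exponential decay fits and weighted Michaelis–Menten fits of normalised per-tile medians.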

glucosamine-6-phosphate [2] = variants of: B1; experiment: self-cleavage kobs at 160 uM GlcN6P; higher = faster cleavage; RNA array
Procedure, shortened: as §1

glucosamine-6-phosphate [3] = variants of: B1; experiment: self-cleavage kobs at 2500 uM GlcN6P; higher = faster cleavage; RNA array
Procedure, shortened: as §1

glucosamine-6-phosphate [4] = variants of: B1; experiment: self-cleavage kobs at 10000 uM GlcN6P; higher = faster cleavage; RNA array
Procedure, shortened: as §1

glucosamine-6-phosphate [5] = variants of: B1; experiment: self-cleavage kobs at 640 uM GlcN6P; higher = faster cleavage; RNA array
Procedure, shortened: as §1

| Variant | self-cleavage kobs at 40 uM GlcN6P (glucosamine-6-phosphate [1]) [s⁻¹] | self-cleavage kobs at 160 uM GlcN6P (glucosamine-6-phosphate [2]) [s⁻¹] | self-cleavage kobs at 2500 uM GlcN6P (glucosamine-6-phosphate [3]) [s⁻¹] | self-cleavage kobs at 10000 uM GlcN6P (glucosamine-6-phosphate [4]) [s⁻¹] | self-cleavage kobs at 640 uM GlcN6P (glucosamine-6-phosphate [5]) [s⁻¹] |
| --- | --- | --- | --- | --- | --- |
| A6U G41C | < 1e-05 | < 1e-05 | < 1e-05 | < 1e-05 | – |
| G32U G37U A39G | < 1e-05 | – | < 1e-05 | – | – |
| C11G G66U | < 1e-05 | – | < 1e-05 | – | – |
| A14G U54G G66A | 0.000476 ± 0.00011 | – | – | 0.0163 ± 0.0061 | – |
| G35A A48U C71U | < 1e-05 | – | – | – | – |
| A6G A15C A53G | < 1e-05 | – | 6.25e-05 ± 2e-05 | – | – |
| C50A G51C | < 1e-05 | – | – | < 1e-05 | – |
| C50G G62U | 0.00036 ± 0.00014 | 0.000115 ± 1.8e-05 | – | 3.35e-05 ± 1e-05 | 0.000122 ± 2.7e-05 |
| G41U G60U A64U | < 1e-05 | < 1e-05 | – | < 1e-05 | – |
| G29U U56G G62U | < 1e-05 | – | – | – | – |
| C16U G38C A48G C50U U55G | < 1e-05 | – | – | < 1e-05 | – |
| G32C G44C U55C C68A C70U | < 1e-05 | – | < 1e-05 | – | – |
| U55G C61A G66C C70A | 0.000162 ± 4.4e-05 | 0.000108 ± 2.1e-05 | 8.3e-05 ± 1.7e-05 | – | 0.000153 ± 3.1e-05 |
| C34A G41A U65G | < 1e-05 | – | – | – | – |
| G40C C58G C67U | < 1e-05 | – | – | – | – |
| G43C G63U | < 1e-05 | < 1e-05 | < 1e-05 | – | < 1e-05 |
| G35U G59C | < 1e-05 | < 1e-05 | < 1e-05 | < 1e-05 | < 1e-05 |
| G59C C71U | < 1e-05 | < 1e-05 | < 1e-05 | < 1e-05 | < 1e-05 |
| G44A U47A C71A | < 1e-05 | – | < 1e-05 | < 1e-05 | < 1e-05 |
| C34G C50G G59A C67G | 3.78e-05 ± 1.8e-05 | 0.000158 ± 3.7e-05 | 0.000115 ± 2.3e-05 | – | – |
| C8U U65G | < 1e-05 | < 1e-05 | < 1e-05 | < 1e-05 | < 1e-05 |
| A6U C16U G32C A42U U57G | < 1e-05 | – | – | – | – |
| A14G A15C G41U C58U | < 1e-05 | – | – | < 1e-05 | – |

| Variant | self-cleavage kobs at 40 uM GlcN6P (glucosamine-6-phosphate [1]) [s⁻¹] | self-cleavage kobs at 160 uM GlcN6P (glucosamine-6-phosphate [2]) [s⁻¹] | self-cleavage kobs at 2500 uM GlcN6P (glucosamine-6-phosphate [3]) [s⁻¹] | self-cleavage kobs at 10000 uM GlcN6P (glucosamine-6-phosphate [4]) [s⁻¹] | self-cleavage kobs at 640 uM GlcN6P (glucosamine-6-phosphate [5]) [s⁻¹] |
| --- | --- | --- | --- | --- | --- |
| G35C G66C | < 1e-05 | < 1e-05 | < 1e-05 | < 1e-05 | < 1e-05 |
| G35U U54C U55A G59C | < 1e-05 | – | – | < 1e-05 | – |
| G40A U47G | 8.03e-05 ± 1.9e-05 | 0.000122 ± 2.3e-05 | 0.00069 ± 0.00018 | 0.00267 ± 0.0004 | 0.000547 ± 0.00011 |
| U47A A53G | 0.000816 ± 9.9e-05 | 0.00166 ± 0.0003 | 0.0106 ± 0.0028 | 0.04 ± 0.011 | 0.00725 ± 0.0013 |
| G43C A48U C50U C58A C67U | < 1e-05 | – | – | – | < 1e-05 |
| A33C G40C G44U C50U | < 1e-05 | – | < 1e-05 | – | – |
| G32C G35A A48U A52U U54C C67U | < 1e-05 | < 1e-05 | – | – | < 1e-05 |
| C10A U46G | < 1e-05 | < 1e-05 | < 1e-05 | – | < 1e-05 |
| A6C A52U G60U | < 1e-05 | – | – | – | – |
| A6C G13C A52G | < 1e-05 | – | – | < 1e-05 | – |
| A6G A14U U55G C68G | < 1e-05 | – | – | – | – |
| A12C C50U U54G | < 1e-05 | – | – | – | – |
| A36G G63A C67G | < 1e-05 | – | – | < 1e-05 | – |
| U31A G35C A36U | < 1e-05 | – | – | < 1e-05 | < 1e-05 |
| G40C G41C G63U | < 1e-05 | – | – | – | – |
| C16G C34G G60U C61G U65A C67G | 8.29e-05 ± 1.8e-05 | – | 0.000198 ± 6.9e-05 | – | – |
| A36C G37A C58G | < 1e-05 | – | < 1e-05 | < 1e-05 | – |
| A42C G51A C61U | < 1e-05 | < 1e-05 | – | < 1e-05 | – |
| G9A A14G U30A | < 1e-05 | < 1e-05 | – | 4.06e-05 ± 1.5e-05 | < 1e-05 |
| C8G A39C | < 1e-05 | < 1e-05 | < 1e-05 | < 1e-05 | < 1e-05 |
| A6C G60U | < 1e-05 | < 1e-05 | < 1e-05 | < 1e-05 | < 1e-05 |
| G41A U49A | < 1e-05 | < 1e-05 | – | < 1e-05 | – |
| C10A G60A | < 1e-05 | < 1e-05 | < 1e-05 | – | < 1e-05 |
